Series [1] concerns the target T1, PlyC-A, the PlyC heavy chain (C1 bacteriophage lysin, ORF 11) (C1 bacteriophage, UniProt Q7Y3F1 2-465).
T1 construct: 50 kDa subunit of the PlyC lysin; also called heavy subunit (ORF 11); plyCA gene product
T1 sequence: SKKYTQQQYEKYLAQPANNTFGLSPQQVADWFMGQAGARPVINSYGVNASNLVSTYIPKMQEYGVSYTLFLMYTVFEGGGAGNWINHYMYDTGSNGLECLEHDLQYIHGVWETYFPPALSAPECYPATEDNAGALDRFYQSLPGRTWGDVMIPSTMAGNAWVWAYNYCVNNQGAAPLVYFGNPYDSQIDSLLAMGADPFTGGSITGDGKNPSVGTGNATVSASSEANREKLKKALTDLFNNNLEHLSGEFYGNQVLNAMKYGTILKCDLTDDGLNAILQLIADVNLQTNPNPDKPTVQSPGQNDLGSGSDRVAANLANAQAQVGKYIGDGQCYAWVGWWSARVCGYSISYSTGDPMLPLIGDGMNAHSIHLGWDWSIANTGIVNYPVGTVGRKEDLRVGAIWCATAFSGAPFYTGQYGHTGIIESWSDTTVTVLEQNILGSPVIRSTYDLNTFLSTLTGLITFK
As to the kind of experiment: N-terminal sequencing signals of the native enzyme (55 pm PlyC-B, 12 pm PlyC-A).

In series [2] the target is T2, PlyC-A, the PlyC heavy chain (C1 bacteriophage lysin, ORF 11).
T2 chain: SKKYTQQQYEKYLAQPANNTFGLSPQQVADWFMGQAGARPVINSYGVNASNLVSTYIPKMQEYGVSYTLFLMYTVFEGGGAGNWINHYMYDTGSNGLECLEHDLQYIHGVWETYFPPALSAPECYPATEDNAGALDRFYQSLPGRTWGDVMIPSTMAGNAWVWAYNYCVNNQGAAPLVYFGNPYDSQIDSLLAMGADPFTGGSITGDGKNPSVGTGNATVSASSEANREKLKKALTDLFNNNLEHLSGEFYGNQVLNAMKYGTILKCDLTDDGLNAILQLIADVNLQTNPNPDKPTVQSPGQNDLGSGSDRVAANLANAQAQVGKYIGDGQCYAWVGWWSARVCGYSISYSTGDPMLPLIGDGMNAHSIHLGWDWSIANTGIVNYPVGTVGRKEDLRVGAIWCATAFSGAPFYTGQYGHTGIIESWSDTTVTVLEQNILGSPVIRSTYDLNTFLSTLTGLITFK

Series [3] concerns the target T1, PlyC-A, the PlyC heavy chain (C1 …). In words: 35S-methionine labelling of purified PlyC, SDS-PAGE bands counted by scintillation (n=20), cpm per methionine. The method, then:
³⁵S-methionine labeling of PlyC. […] A fresh 20 ml overnight culture of B834/pBAD24::plyC was washed twice with M9 media, and used to inoculate a 2 L flask of M9 minimal media supplemented with 2 mCi ³⁵S-methionine (New England Nuclear). Expression of ³⁵S-Methionine-PlyC was induced with 0.5% arabinose and the enzyme was purified as described above. The heavy and light chains were resolved by SDS-PAGE using 15 μg of labeled PlyC loaded each lane (n=20). Individual bands were cut out of the gel, suspended in 1 ml of SigmaFluor scintillation fluid (Sigma), and counts per minute (cpm) of β-activity was assessed on a Beckman LS5000TD counter.
In order to achieve a mass of 100 kDa, multiple copies of one or both subunits must exist. Thus, PlyC is a multimer. Circumstantial evidence for a molar ratio of 5 light chains to one heavy chain was obtained from N-terminal sequencing of the native enzyme, which yielded a 55 pm signal for PlyC-B and a 12 pm signal for PlyC-A (data not shown). […] Therefore, to further investigate the ratios of PlyC-A and PlyC-B, we cloned plyC into B834 E. coli cells, which are auxotrophic for methionine. […] We were able to enumerate an average signal, measured in counts per minute, for each chain by placing gel-extracted bands (n=20) in scintillation fluid and measuring the β activity (Table IV). […]

B1: PlyC-B, the PlyC light chain (C1 bacteriophage lysin, ORF 9) (enzyme)
chain: SKINVNVENVSGVQGFLFHTDGKESYGYRAFINGVEIGIKDIETVQGFQQIIPSINISKSDVEAIRKAMKK
notes: 8 kDa subunit of the PlyC lysin, a 72 amino acid polypeptide; About six copies per PlyC-A are proposed in the native multimer; also called light subunit (ORF 9); plyCB gene product
B1: the “molar ratio of light chains to heavy chain” value in series [1] was 5 light chains per heavy chain. For the same molecule, in series [2], the “PlyC lytic activity of a double transformant (pBAD33::plyCB and pBAD24::plyCA in one host)” value is on record as “Upon induction with 0.5% arabinose, the double transformant contained PlyC activity”; the “activity of the refolded PlyC-B and PlyC-A mixture, normalized to the native PlyC clone (FIG. 3, lane 5)” value is “reconstituted ~25% of the wild-type activity (lane 5)”; the “lytic activity on group A streptococci (chains expressed individually, mixed, incubated 1 hr at room temperature)” value is “When both chains were mixed together and allowed to incubate at room temperature for 1 hr, again no activity was noted”; the “lytic activity on group A streptococci after urea denaturation and refolding of the mixed chains, relative to wild-type PlyC” value is listed as “we were able to reconstitute ~30% of wild-type activity”. Also, the “lytic activity on group A streptococci of a lil- chimera with full-length plyCB and plyCA” value in series [2] was “a lil- chimera, which contained full-length plyCB and plyCA, possessed wild-type PlyC activity”. In series [3], the “Avg. ratio PlyC-A:PlyC-B” value is 6.17 PlyC-B per PlyC-A.
